Columns and labels:
[1] = biological target: JunΔdimΔDNA-mRFP1 (human) (UniProt P05412); test: dual-colour FCCS in living HeLa cells; references: 13% for no interaction, 45% for 100% interaction
[2] = biological target: monomeric Red Fluorescent Protein 1 (mRFP1); test: dual-colour FCCS in living HeLa cells, proteins expressed separately from pIRES-EGFP-mRFP1 (negative control, 0% interaction)

Sequence of UniProt P05412 (P05412 other isoform, or with tags, fused parts or gaps mutant): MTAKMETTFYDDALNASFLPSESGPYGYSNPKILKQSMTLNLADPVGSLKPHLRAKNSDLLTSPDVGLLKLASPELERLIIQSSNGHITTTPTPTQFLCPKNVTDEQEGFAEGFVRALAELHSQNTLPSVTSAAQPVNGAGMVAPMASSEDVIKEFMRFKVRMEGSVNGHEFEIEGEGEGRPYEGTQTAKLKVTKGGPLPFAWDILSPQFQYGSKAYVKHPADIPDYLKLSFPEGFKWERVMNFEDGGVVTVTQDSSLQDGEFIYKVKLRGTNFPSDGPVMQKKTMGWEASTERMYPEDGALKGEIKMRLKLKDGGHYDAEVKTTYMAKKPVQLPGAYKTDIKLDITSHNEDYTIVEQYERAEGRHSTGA

Substance	cross-correlation amplitude [1] [%]	cross-correlation amplitude (percent of the autocorrelation signal) [2] [%]
FosΔdimΔDNA-EGFP (from UniProt P01100 1-138)	18	–
Enhanced Green Fluorescent Protein (EGFP)	–	13

From EP1645881A1
